Reference: patent US11938195B2, “Upconversion nanoparticle peptide conjugates” (BP InnoMed Limited, priority 2021, dated 2024)
Where no end group is shown, it is not given here. [ ]: non-standard residue; d: D form. Ahx = NCCCCCC(=O)O

Legend:
p65 [1] = experiment: Western blot of p65 (NF-κB) in LCL3 cells; assay type: cell-based
Source text: (§1) NF-κB signaling pathway is critical for the survival of EBV-infected tumor cells. Here we investigated if our nanoprobes could affect this oncogenic pathway. EBV-positive LCL3 and C666 cells were used as models, EBV-negative HK1 cells were used as control and Western blot was used to analyze the protein expression of p65, a major transcription factor in the NF-κB family. […] GAPDH and Histone are regarded as internal standards in cytosolic and nuclear fractions, respectively. […] This is consistent with the cellular uptake results.
(§2) Western blotting: EBV-positive C666, LCL3 and EBV-negative HK1 cell pellets were treated with phosphatase and protease inhibitors at 0-4° C. for 30 min. The total protein concentrations were calculated by protein absorbance. The protein was resolved by sodium dodecyl sulfate-polyacrylamide gel electrophoresis (SDS-PAGE) and transferred to cellulose filter membranes. The membranes were blocked with 3% BSA in Tris-buffered saline in 0.1% Tween 20 (TBST) for 1 h with gentle shaking and subsequently incubated with primary antibodies (1:1000) in 3% BSA in TBST at 4° C. for overnight. After rinsing with TBST buffer three times, the blots were then incubated with corresponding secondary anti-rabbit antibody (1:6000) for 1 h. After that, the blots were rinsed again with 3% BSA in TBST for 1 h shaking at room temperature. Lastly, the density of bands was determined by image analysis system after washing with TBST buffer three times.

[2] = Peptide release from nanoprobes under various time intervals (UV-vis absorbance); assay type: physicochemical; conditions: 0.5 mg/mL
Source text: The stability and capability of cleavage of the pH linker were also studied. […] More importantly, TEM images of UCNP-P5 at different pH buffers were observed and investigated in FIG. 1, providing direct evidence on pH-responsive peptide release from UCNP.

HK1-LMP1 cells = experiment: Cellular uptake by ICP-MS, HK1-LMP1; assay type: cell-based
Procedure: Subsequently, the quantitative distribution and uptake efficiency of nanoprobes in vitro in C666, HK1, HK1-LMP1 and LCL3 cells lines were monitored and investigated by evaluating the lanthanide content originating from the nanoprobes using inductively coupled plasma mass spectrometry (ICP-MS).
After co-incubation, the cell culture medium containing the nanoprobes was removed, and the exposed cells were further rinsed with 1 mL PBS three times. After that, the cells were trypsinized and re-dispersed in 1 mL cell medium. The cells were collected by centrifugation at 1500 rpm, and the cell pellet was digested in 100 μL concentrated HNO3 (69%) at room temperature for 3 h. Then, each cell pellet in centrifuge tube was filled up to 10 mL with 1% HNO3. The cellular uptake of all the nanoprobes was recorded via an Agilent 7500 series ICP-MS instrument. All ICP experiments were performed three times, and the values of Gd concentration (ppm) obtained were calculated and averaged.

EBV-positive C666 cells = experiment: Two-photon confocal imaging, C666; assay type: cell-based; conditions: mainly from the nuclei, 24 h incubation
Procedure: After the study of cellular uptake, fluorescent confocal microscopy was used to study the sub-cellular localization with the same set of EBV-/LMP1-positive and -negative cell lines. All these cell lines were treated with as-prepared samples for different time intervals of 1 h, 3 h, 6 h, 12 h and 24 h. Fluorescence signals in the cells were imaged under 980 nm excitation.
The cells were then co-stained with 0.05 mM nuclear dye DRAQ5 for 0.5 h for confocal imaging with a Leica SP8 confocal microscope equipped with a coherent femtosecond laser (690-1050 nm), argon laser (432 nm, 457 nm and 488 nm), He—Ne laser (632 nm), UV lamp. A stage-top cell culture chamber was also used to maintain the atmospheric conditions of 2-7% CO2 and a temperature of 37° C.

EBV-negative MRC-5 cells = experiment: MTT cytotoxicity assay, MRC-5 cells; assay type: cell-based, human; parameters: unit not given here; conditions: 24 h incubation
p65 [3] = experiment: Western blot of p65 (NF-κB) in C666 cells; assay type: cell-based
Source text: as §1, §2

[4] = target: EBNA1 (DNA-binding domain fragment of a.a.468-607) (Epstein-Barr virus, UniProt P03211); experiment: EBNA1 dimerization/oligomerization inhibition assay; assay type: biochemical; conditions: 0.3 mg/mL nanoprobe, 90 mg EBNA1, DSS crosslinking, SDS gel
Procedure: EBNA1 dimerization/oligomerization inhibition assays were performed to reveal the ability of interrupting EBNA1 dimerization/oligomerization in the presence of the previous nanoprobe UCNP-P4 and the nanoplatforms in situ.
(conc.: 0.3 mg/mL) at 4° C. overnight. Then, 2 mM disuccinimidyl suberate (DSS) was added to allow the samples to undergo crosslinking reaction at room temperature for 30 min. The samples were run and separated on an SDS-denaturing gel and proteins were detected using Coomassie Blue staining. PBS buffer was used as control group.

EBNA1 (DNA-binding domain fragment of a.a.468-607), sequence (P03211 468-607): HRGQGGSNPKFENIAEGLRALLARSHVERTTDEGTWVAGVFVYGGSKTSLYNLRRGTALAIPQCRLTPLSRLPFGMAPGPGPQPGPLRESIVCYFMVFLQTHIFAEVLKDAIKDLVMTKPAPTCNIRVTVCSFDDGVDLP

Substance: UCNP-P5: UCNP is NaGdF4:Yb^3+, Er^3+@NaGdF4 and plurality of polypeptides is Ahx-YFMVFGGRrRKGGFWLY (SEQ ID NO: 5), pH-sensitive imine linker ([Ahx]YFMVFGGR[dR]RKGGFWLY; also: conjugated to UCNP NaGdF4:Yb3+,Er3+@NaGdF4 via pH-sensitive imine linker)
- Decreased p65 expression, nuclear fraction (p65 [1]): 86%
- Peptide release rate ([2]; 1 h): 0%
- Peptide release rate ([2]; 3 h): 0%
- Peptide release rate ([2]; 6 h): 0.1%
- Peptide release rate ([2]; 12 h): 0.5%
- Peptide release rate ([2]; 24 h): 0.7%
- Peptide release rate ([2]; 3 day): 0.8%
- Peptide release rate ([2]; 5 day): 1.1%
- Peptide release rate ([2]; 7 day): 1.9%
- Uptake relative to UCNP-P6 and UCNP-P7 (HK1-LMP1 cells; HK1-LMP1 (HK1 / HK1-LMP1 cell pair)): two-fold
- Cellular uptake (Gd amount by ICP-MS) (HK1-LMP1 cells; HK1-LMP1, 50 μg/mL): largest amount of cellular uptake
- Responsive emission enhancement (lambda scan) (EBV-positive C666 cells): two-fold
- IC50 in MRC-5 (EBV-negative MRC-5 cells): 1280
- Decreased p65 expression, nuclear fraction (p65 [3]): 89%
- Inhibition of EBNA1 dimerization/oligomerization [4]: eradicate all 90 mg EBNA1 dimers and oligomers
